Data on three molecules can be found in patent publication US20220267469A1 (LIPUM, published 2022).

Usually Kd stands for the constant that tells how readily two partners part at equilibrium.

Changes are numbered by the printed parent chain. In names and notes the source's numbering stands.

Assay [1] deals with T1, Human BSSL (bile salt-stimulated lipase), native (human, UniProt P19835 21-753).
T1 construct: Native full-length protein purified from human milk (Astra Hässle AB); also called hBSSL; non-biotinylated human BSSL
T1 sequence: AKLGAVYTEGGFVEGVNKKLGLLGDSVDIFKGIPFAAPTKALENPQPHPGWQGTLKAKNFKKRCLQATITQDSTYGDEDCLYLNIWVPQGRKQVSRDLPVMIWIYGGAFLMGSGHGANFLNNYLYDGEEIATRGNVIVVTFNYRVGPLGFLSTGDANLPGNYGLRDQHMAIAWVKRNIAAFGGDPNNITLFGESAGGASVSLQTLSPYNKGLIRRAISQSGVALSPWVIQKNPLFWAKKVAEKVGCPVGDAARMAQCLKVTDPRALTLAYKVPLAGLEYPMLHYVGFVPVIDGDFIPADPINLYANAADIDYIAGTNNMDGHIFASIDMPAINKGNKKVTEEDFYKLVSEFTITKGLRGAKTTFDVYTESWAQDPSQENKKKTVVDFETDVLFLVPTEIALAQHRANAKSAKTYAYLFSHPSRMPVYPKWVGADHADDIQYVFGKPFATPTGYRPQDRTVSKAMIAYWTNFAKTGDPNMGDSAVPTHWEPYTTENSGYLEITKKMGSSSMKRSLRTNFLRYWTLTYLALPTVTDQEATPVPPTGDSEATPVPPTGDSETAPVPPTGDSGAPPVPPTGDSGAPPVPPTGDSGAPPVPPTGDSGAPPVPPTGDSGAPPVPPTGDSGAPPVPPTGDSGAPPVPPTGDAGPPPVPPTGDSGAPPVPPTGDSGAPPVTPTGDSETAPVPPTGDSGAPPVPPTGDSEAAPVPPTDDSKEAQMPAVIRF
In words: SPR single cycle kinetics, hIgG4 S228P captured by anti-Fab. Summed up: (§1)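 hIgG4 S228P captured on an immobilized anti-Fab surface; five BSSL concentrations injected, 1:5 dilutions from 50 nM (human) or from 500 nM (mouse). Human BSSL: single-cycle kinetics, 1:1 fit. Mouse BSSL: KD from steady-state equilibrium response versus concentration. Regeneration with 10 mM glycine-HCl pH 2.1.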

Assay [2] deals with T2, Biotinylated human BSSL (human, UniProt P19835 21-753, Biotinylated on glycosacarides, 30-40 biotin/BSSL).
T2 construct: hBSSL biotinylated in house; also called b-hBSSL; human BSSL-biotin
T2 sequence: T1 sequence
Put plainly: flow cytometry displacement assay; 3.0 ug antibody, 1 ug b-hBSSL. Summed up: (§2)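 Antibody (0.5–3.0 μg per reaction) preincubated with 1 μg biotinylated human BSSL in PBS pH 7.4, 30 min at 4 °C, then with human buffy coat 30 min at 4 °C. After erythrocyte lysis/fixation, bound BSSL on CD14+ monocytes detected by labelled streptavidin via flow cytometry.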
Background: In flow cytometry, cells or beads pass a laser one at a time.

Assay [3] deals with T3, Mouse BSSL, recombinant (mouse, UniProt Q64285 21-599).
T3 construct: Bought (R&D Systems, Cat. no 5658-CE); also called mBSSL; murine BSSL
T3 sequence: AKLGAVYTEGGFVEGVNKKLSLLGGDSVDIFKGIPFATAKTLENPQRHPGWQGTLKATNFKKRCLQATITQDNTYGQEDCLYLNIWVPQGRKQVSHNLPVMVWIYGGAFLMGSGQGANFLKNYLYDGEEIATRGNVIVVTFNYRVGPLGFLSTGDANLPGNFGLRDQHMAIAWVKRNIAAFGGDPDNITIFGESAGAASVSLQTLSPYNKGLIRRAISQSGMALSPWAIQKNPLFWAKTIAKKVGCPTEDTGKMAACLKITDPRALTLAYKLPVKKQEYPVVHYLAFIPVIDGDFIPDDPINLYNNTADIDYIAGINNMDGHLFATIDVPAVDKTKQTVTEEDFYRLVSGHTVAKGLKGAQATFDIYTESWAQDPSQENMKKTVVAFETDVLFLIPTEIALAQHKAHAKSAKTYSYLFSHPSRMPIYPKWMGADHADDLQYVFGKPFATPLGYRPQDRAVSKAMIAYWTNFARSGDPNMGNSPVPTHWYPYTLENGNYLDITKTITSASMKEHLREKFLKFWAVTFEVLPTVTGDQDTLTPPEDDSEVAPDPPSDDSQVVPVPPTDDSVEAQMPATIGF
In words: SPR steady state, captured by anti-Fab, Absolute Antibody batch. The procedure:
(§3) Kinetic parameters of the hIgG4 S228P clones were determined by SPR using BIACORE® T200 (GE Healthcare). An anti-Fab antibody (GE #28958325) was immobilized on a CM5 S sensor chip by primary amine coupling using NHS-EDC chemistry. The hIgG4 antibodies were captured by the anti-Fab antibody, and subsequently, five different concentrations of hBSSL (1:5 dilutions, 0.08-50 nM) or mBSSL (1:2 dilutions, 50-800 nM) were injected over the surface. The sensor chip surface was regenerated with 10 mM glycine-HCl pH 2.1. For binding to human BSSL, single cycle kinetic data was fitted to a 1:1 binding model and kinetic parameters were retrieved using software BlAevaluation. For mouse BSSL, a steady state analysis was performed by plotting the response level at equilibrium against each concentration, and KD values were retrieved by the BlAevalution software.

In assay [4] the target is T1, Human BSSL (bile salt-stimulated …). In words: cell-based or functional assay.
Assay [5] has the same target. In words: SPR single cycle kinetics, captured by anti-Fab, Absolute Antibody batch. The procedure: as §3
Assay [6] shares this target. Put plainly: cell-based or functional assay. The source holds these as a separate data set.
The target in assay [7] is T3, Mouse BSSL, recombinant. In words: SPR steady state, hIgG4 S228P captured by anti-Fab. Summed up: as §1
The target of assay [8] is T2, Biotinylated human BSSL. Put plainly: flow cytometry displacement assay; 1.5 ug antibody, 1 ug b-hBSSL. Summed up:
as §2

Assay [9] has as its target T2, Biotinylated human BSSL. Put plainly: flow cytometry displacement assay; 1.0 ug antibody, 1 ug b-hBSSL. The procedure:
(§4) The 28 BSSL-specific hIgG4 antibodies and the five reference antibodies at different concentrations (ranging from 0.5 μg to 3.0 μg per reaction; see Table 10) were added to b-hBSSL (1 μg per reaction, see Table 2) in round-bottom polystyrene tubes, lx PBS (pH 7.4) was added to a final volume of 20 μl and the antibody/b-hBSSL mixtures were incubated for 30 min. at +4° C. to facilitate binding of antibodies to BSSL. Buffy coat (50 μl) was then added to each antibody/b-hBSSL mixture and incubation continued for another 30 min at +4° C. Thereafter, 2 ml of FACS lysing solution (BD Biosciences) was added and the cells were incubated for 10 min at room temperature in order to lyse erythrocytes and fix the white blood cells. The cells were then centrifuged for 5 min. at 200×g, the resulting pellets were washed by adding 2 ml of FACS buffer (1×PBS supplemented with 1% FCS and 0.1% NaN3) and centrifuged again. Finally, the supernatants were discarded and the cells were resuspended in the last drop of liquid, approximately 50 μl.
(§5) 5 μl of BV421-labelled anti-human CD14 (BD Biosciences) and 5 μl of BB515-labelled streptavidin (BD Biosciences) was added to each tube and incubated for 30 min, at +4° C., protected from light. Thereafter, cells were washed twice with FACS buffer, resuspended in 500 μl FACS buffer, and run on BD LSRII flow cytometer (BD Biosciences). Finally, data were analyzed using FlowJo software (BD Biosciences).

In assay [10] the target is T2, Biotinylated human BSSL. In words: flow cytometry displacement assay; 2.0 ug antibody, 1 ug b-hBSSL. The procedure:
as §4, §5

For assay [11], the target named is T2, Biotinylated human BSSL. Put plainly: flow cytometry displacement assay; 0.5 ug antibody, 1 ug b-hBSSL. The procedure:
as §4, §5

B1: S-SL048-46 hIgG4 S228P (antibody, V domains shown)
VH: QVQLVQSGAEVKKPGASVKVSCKASGYTFTSYNMHWVRQAPGQGLEWMGVINPGDGATSYNQKFQGRVTMTRDTSTSTVYMELSSLRSEDTAVYYCARDYYGSSPLGYWGQGTLVTVSS
VL: DIQMTQSPSSLSASVGDRVTITCRASSSISYLNWYQQKPGKAPKLLIYAASSLASGVPSRFSGSGSGTDFTLTISSLQPEDFATYYCHQRSSSPTFGQGTKLEIKR
notes: also called clone 46; mAb46
With B1, the equilibrium dissociation constant (Kd) in assay [1] is 3.7 nM. Further, in assay [2], the “percentage reduction of b-hBSSL binding to CD14+ monocytes” value (“percentage reduction of b-hBSSL binding” below) is 61%. Also, the dissociation constant (Kd) in assay [3] stood at 55 nM. Also, in [4], the “BSSL hydrolysis of triglycerides, relative value (no antibody = 100%); 0.19 ug antibody” value worked out at 105%; the “BSSL hydrolysis of triglycerides, relative value (no antibody = 100%); 0.38 ug antibody” value stood at 123%; the “BSSL hydrolysis of triglycerides, relative value (no antibody = 100%); 0.75 ug antibody” value amounted to 121%; the “BSSL hydrolysis of triglycerides, relative value (no antibody = 100%); 1.5 ug antibody” value came out at 113%. In assay [4], the “BSSL hydrolysis of triglycerides, relative value (no antibody = 100%); 3.0 ug antibody” value was 119% and the “BSSL hydrolysis of triglycerides, relative value (no antibody = 100%); 6.0 ug antibody” value is 126%. The Kd in [5] was 3.8 nM. Also, in assay [6], the “BSSL hydrolysis of cholesterol esters, relative value (no antibody = 100%); 0.19 ug antibody” value was determined as 95.7%; the “BSSL hydrolysis of cholesterol esters, relative value (no antibody = 100%); 0.38 ug antibody” value was 99%; the “BSSL hydrolysis of cholesterol esters, relative value (no antibody = 100%); 0.75 ug antibody” value worked out at 97.6%; the “BSSL hydrolysis of cholesterol esters, relative value (no antibody = 100%); 1.5 ug antibody” value was found to be 88.3%. For the same molecule, in assay [6], the “BSSL hydrolysis of cholesterol esters, relative value (no antibody = 100%); 3.0 ug antibody” value was found to be 93.5% and the “BSSL hydrolysis of cholesterol esters, relative value (no antibody = 100%); 6.0 ug antibody” value is 97.7%. In addition, in assay [7], the Kd amounted to 24 nM. Besides, in [8], the “percentage reduction of b-hBSSL binding” value was determined as 43%.

B2: S-SL048-66 hIgG4 S228P (antibody, V domains shown)
VH: B1 VH with Q65K
VL: DIQMTQSPSSLSASVGDRVTITCSASQSISYMNWYQQKPGKAPKLLIYDASSLASGVPSRFSGSGSGTDFTLTISSLQPEDFATYYCHQRSSTPTFGQGTKLEIK
notes: Tested as human IgG4 S228P
As for B2, the “percentage reduction of b-hBSSL binding” value is 12% in assay [9]; 51% in assay [2]; 39% in assay [8]; 43% in [10]; 12% in assay [11]. For the same molecule, the Kd in assay [1] turned out to be 8 nM; in assay [7], 83 nM.

B3: S-SL048-116 hIgG4 S228P (antibody, V domains shown)
VH: B1 VH with N61A, Q65K
VL: B1 VL with S27P, L32M, A50T
notes: also called mAb116
As to B3, in assay [1], the Kd was found to be 0.6 nM. Besides, the “percentage reduction of b-hBSSL binding” value in [2] is 64%. In [3], the Kd was found to be 40 nM. In [4], the “BSSL hydrolysis of triglycerides, relative value (no antibody = 100%); 0.19 ug antibody” value came out at 105%; the “BSSL hydrolysis of triglycerides, relative value (no antibody = 100%); 0.38 ug antibody” value turned out to be 112%; the “BSSL hydrolysis of triglycerides, relative value (no antibody = 100%); 0.75 ug antibody” value was found to be 100%; the “BSSL hydrolysis of triglycerides, relative value (no antibody = 100%); 1.5 ug antibody” value is 96.2%. Further, in assay [4], the “BSSL hydrolysis of triglycerides, relative value (no antibody = 100%); 3.0 ug antibody” value came to 106% and the “BSSL hydrolysis of triglycerides, relative value (no antibody = 100%); 6.0 ug antibody” value turned out to be 108%. For the same molecule, in [5], the equilibrium dissociation constant (Kd) was 0.5 nM. In assay [6], the “BSSL hydrolysis of cholesterol esters, relative value (no antibody = 100%); 0.19 ug antibody” value was 104%; the “BSSL hydrolysis of cholesterol esters, relative value (no antibody = 100%); 0.38 ug antibody” value turned out to be 107%; the “BSSL hydrolysis of cholesterol esters, relative value (no antibody = 100%); 0.75 ug antibody” value was 102%; the “BSSL hydrolysis of cholesterol esters, relative value (no antibody = 100%); 1.5 ug antibody” value stood at 103%. In addition, in assay [6], the “BSSL hydrolysis of cholesterol esters, relative value (no antibody = 100%); 3.0 ug antibody” value was 107% and the “BSSL hydrolysis of cholesterol esters, relative value (no antibody = 100%); 6.0 ug antibody” value came out at 107%. Also, the Kd in [7] amounted to 52 nM. Further, the “percentage reduction of b-hBSSL binding” value in [8] was found to be 58%.
